In data set [1] the test system is Ba/F3-p210-T315I cells. In words: Annexin V/7-AAD apoptosis assay in Ba/F3 BCR-ABL1 T315I cells. Format: cell-based, mouse. The settings on record: 72 h, CCmut3 vs EV. How it is done: Assays were run in triplicate (n=3).
For analysis of apoptosis and cell death, cells were pelleted and resuspended in Annexin V-binding buffer (BD Biosciences), stained with anti-Annexin V-APC (BD Biosciences or Life Technologies) and 7-AAD (BD Biosciences or Life Technologies) and analyzed on a BD FACSCanto flow cytometer. In addition to the APC and 7-AAD channels, GFP- and mCherry-positive cells were also recorded.
For analysis of apoptosis and necrotic cell death, cells were pelleted and resuspended in Annexin V-binding buffer (BD Biosciences), stained with anti-Annexin V-APC and 7-AAD (BD Biosciences or Life Technologies) and analyzed on a BD FACSCanto flow cytometer. In addition to the APC and 7-AAD channels, GFP- and mCherry-positive cells were also recorded.

The subject of data set [2] is parental Ba/F3 cells. In words: Proliferation of transfected parental Ba/F3 cells (MTS assay). Format: cell-based, mouse. Particulars: for proliferation of parental Ba/F3 cells: MTS assay at 72 and 96 h, CCmut3 vs EV. How it is done: Stable recombinant Ba/F3 cells transduced with wild type p210 BCR-ABL1 (Daley, G. Q., et al. (1991) Proc. Natl. Acad. Sci. U.S.A. 88, 11335-11338), the kinase domain mutants p210^T315I p210^[…], or the compound mutant p210^E255V/T315I were as previously described (La Rosee, P., et al. (2002) Cancer Res. 62, 7149-7153; O'Hare, T., et al. (2004) Blood 104, 2532-2539). These cells were cultured in RPMI with 10% FBS, 1% penicillin, streptomycin, glutamine, and 0.1% gentamycin (RPMI1640). Additionally 0.1% MycoZap™ (Lonza Bio, Basel, Switzerland) was added to prevent mycoplasma contamination. The non-transduced parental Ba/F3 cell line was grown in RPMI1640 supplemented with 20% WEHI-3B conditioned medium as a source of murine IL-3 (Dexter, T. M., et al. (1980) J. Exp. Med. 152, 1036-1047). Ba/F3 cells were transfected with plasmid DNA using the Amaxa nucleofection system (Lonza Bio), following the manufacturer's instructions. Cells were sorted on a BD FACSAria cytometer (BD Biosciences, San Jose, Calif.) for double-positive cells expressing mCherry and GFP then returned to RPMI1640 for subsequent experiments.
Cell proliferation was assessed using the CellTiter 96® AQueous One Solution Cell Proliferation Assay (MTS assay, Promega) according to manufacturer instructions. Briefly, 5,000 viable cells were added to a single well in 96-well plate in 100 μL RPMI1640. Three independent samples were seeded in duplicate for each time point. […] In some experiments, cell proliferation was assessed using a Neubauer chamber and trypan blue dye exclusion.
Stable Ba/F3 cells transduced with native (p210) BCR-ABL1, the kinase domain mutants BCR-ABL1T315I, BCR-ABL1E255V, or the compound mutant BCR-ABL1E255V/T315I were cultured. […]
Cell proliferation was assessed using a […] viability assay (MTS assay) utilizing CellTiter 96® AQueous One Solution Cell Proliferation Assay (Promega) according to manufacturer instructions. […] Cell growth was assessed by MTS assay at 72 and 96 h. […] In patient sample experiments, cell proliferation was assessed by trypan blue exclusion.
(Tetrazolium assays rely on reduction of a dye to a coloured formazan, in cell work by metabolically active cells.)

For data set [3], the system named is K562 cells. The experiment in a line: Peptide internalization Western blot, K562 cells. Format: cell-based, human. The settings on record: 30 μM, 1.5 hours, Western blot of cell lysates. How it is done: 1.0×10^6 cells resuspended in RPMI or DMEM were seeded in a CellStar 6 well plate (Sigma Aldrich). Cells were then treated with the peptides (CPP-CCmut3, CPP-CCwt, CCmut3, and CPP-His) at a final concentration 30 uM. This is a standard concentration used in cell-penetrating peptide studies. For the kinase activity Western blot, cells were treated with peptides for 16 hours.
For the internalization experiment, cells were treated with peptides for 1.5 hours followed by a 15 minute incubation at 37° C. with heparin sulfate, 0.5 mg/mL (a gift from Kuby Balagurunathan, University of Utah). Cells were centrifuged and resuspended in 1 mL plain RPMI. Trypsin was added to a final concentration of 0.1% w/v, and the cells were incubated at 37° C. for 10 minutes. At that time 1 mL FBS was added to neutralize the trypsin. Cells were then centrifuged at 500×g for 10 minutes, followed by 3 rounds of washes with 5 mL cold PBS.
For both kinase activity and internalization Western blots, cells were resuspended in 100 μL of RIPA lysis buffer (Cell Signaling, Danvers, Mass., USA) with 100× protease/phosphatase inhibitor added (Cell Signaling) and transferred into a pre-chilled microcentrifuge tube. Cells were then sonicated, centrifuged at 12,000×g for 15 minutes, and then the supernatant was transferred into a fresh, pre-chilled microcentrifuge tube. […]
(A western blot detects proteins with antibodies after separation by electrophoresis.)

This is an account of results in patent US10494417B2, “Peptide inhibitors of BCR-ABL oligomerization” (University of Utah Research Foundation, priority 2014, dated 2019).

Values joined by “and” are separate entries in the source; they are usually repeats but may differ in a detail not shown here. Equal values may be shown once. “Also recorded” adds a separate entry of the source.

B1: CCmut3: modified Bcr-Abl coiled-coil domain (residues 1-72) with mutations C38A, K39E, S41R, L45D, E48R, Q60E (protein)
chain: MVDPVGFAEAWKAQFPDSEPPRMELRSVGDIEQELERAEARIRRDEQRVNQERFRMIYLETLLAKEKKSYDR
In the case of B1, the “apoptosis, in words” value is on record as “increase of apoptosis” in data set [1] and “significant shift toward the apoptotic fraction” in data set [1] (listed as CC^mut3). Also, the increase in apoptosis was 6-8 fold and > 5 fold in data set [1]; 6-8 fold in data set [1] (listed as CC^mut3). In addition, the “proliferation of parental Ba/F3 cells” value in data set [2] and in data set [2] (listed as CC^mut3) was “not affected; also recorded: No difference” each time. In addition, the “toxicity in BCR-ABL1-negative cells” value in data set [2] (parental Ba/F3 cells, FIGS. 38a, c, e (proliferation, apoptosis, colony formation)) is recorded as “no measurable toxicity”. For the same molecule, in data set [3], the internalization into cells entry is listed as “unable to enter the cells; also recorded: not internalized; also recorded: did not enter”.
